{
  "source": "patent US20150266957A1",
  "about": "(Regeneron, published 2015)",
  "key": {"human PROKR2": {"molecular_target": "T1, human PROKR2 (human, UniProt Q8NFJ6 1-384)", "T1 construct": "Expressed on engineered HEK293 or CHO cells; also called hPROKR2; prokineticin receptor 2", "T1 sequence (Q8NFJ6 whole entry)": "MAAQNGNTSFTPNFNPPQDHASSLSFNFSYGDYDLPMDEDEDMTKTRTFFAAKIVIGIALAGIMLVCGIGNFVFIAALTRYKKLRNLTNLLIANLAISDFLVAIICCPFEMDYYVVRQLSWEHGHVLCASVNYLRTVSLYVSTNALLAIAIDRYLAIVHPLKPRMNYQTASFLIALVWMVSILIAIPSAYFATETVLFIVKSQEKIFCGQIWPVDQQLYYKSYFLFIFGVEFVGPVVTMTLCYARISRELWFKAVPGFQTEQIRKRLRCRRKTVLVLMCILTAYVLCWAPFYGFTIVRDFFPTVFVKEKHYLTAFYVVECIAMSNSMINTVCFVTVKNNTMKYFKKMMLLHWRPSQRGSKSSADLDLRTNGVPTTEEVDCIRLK", "assay": "flow cytometry, HEK293 cells expressing the target, 13 nM antibody", "description": "(§1) Anti-PROKR antibodies generated in accordance with Example 1 were tested for the ability to bind to human, mouse, and monkey PROKR1 and PROKR2. For these experiments, HEK293 cells were engineered to express: human PROKR1; human PROKR2; mouse PROKR1; mouse PROKR2; cynomolgus monkey PROKR1; or cynomolgus monkey PROKR2. Binding of anti-human PROKR antibodies to the PROKR-expressing cell lines was measured by flow cytometry.\n(§2) Adherent cells were collected using 1 mM EDTA in PBS, then washed, and re-suspended in cold PBS containing 5% FBS. For the binding experiments, each anti-PROKR antibody was added to 250,000 cells in 500 μl of PBS with 5% FBS (final antibody concentration of 13 nM). After incubation for 20 minutes at room temperature, the cells were washed with PBS containing 5% FBS. A secondary antibody, recognizing either human (Jackson Immuno Research, #115-135-205) or mouse Fc (BD Pharmigen, #550826) and conjugated to allophycyanin, was then added to the cell mixture at a final concentration of 13.3 nM. After incubating for 20 minutes on ice, the cells were washed and resuspended in PBS containing 5% FBS and then sorted and analyzed on a FACSCalibur (BD Biosciences) flow cytometer to determine relative binding by the candidate antibodies. The cell samples containing secondary antibody alone were used as negative control for FACS gating. Histograms of cells stained with anti-human PROKR antibodies were compared with cells stained with secondary alone. […] ND=not determined."}, "human PROKR1": {"molecular_target": "human PROKR1 (human, UniProt Q8TCW9 1-393)", "sequence (Q8TCW9 whole entry)": "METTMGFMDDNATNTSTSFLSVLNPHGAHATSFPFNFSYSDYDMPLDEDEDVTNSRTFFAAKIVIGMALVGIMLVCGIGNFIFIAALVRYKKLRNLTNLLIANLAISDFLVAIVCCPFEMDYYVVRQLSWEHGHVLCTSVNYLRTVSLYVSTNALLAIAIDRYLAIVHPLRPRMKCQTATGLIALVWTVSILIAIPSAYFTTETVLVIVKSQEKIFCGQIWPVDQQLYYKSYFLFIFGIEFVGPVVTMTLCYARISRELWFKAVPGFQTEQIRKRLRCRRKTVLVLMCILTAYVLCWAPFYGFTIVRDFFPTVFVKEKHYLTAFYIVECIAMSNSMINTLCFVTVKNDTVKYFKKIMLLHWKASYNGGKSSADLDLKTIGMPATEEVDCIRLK", "assay": "cell-based or functional assay"}, "cynomolgus monkey PROKR1": {"molecular_target": "T2, cynomolgus monkey PROKR1 (cynomolgus monkey (Macaca fascicularis), UniProt G7PMD0 1-393)", "T2 construct": "whole, on cells; Expressed on engineered HEK293 cells; also called MfPROKR1; 293/mfPROKR1", "T2 sequence (G7PMD0 entry or part of it)": "as the sequence (Q8TCW9 whole entry) above, with V22A, T31A, S40G, I82V, V135I, K210R, V246F, D348N, V350A counted along it", "assay": "flow cytometry, HEK293 cells expressing the target", "description": "as §1, §2"}, "cynomolgus monkey PROKR2": {"molecular_target": "T3, cynomolgus monkey PROKR2 (cynomolgus monkey (Macaca fascicularis), UniProt A0A7N9CAJ3 1-384)", "T3 construct": "whole, on cells; Expressed on engineered HEK293 cells; also called MfPROKR2; 293/mfPROKR2", "T3 sequence (A0A7N9CAJ3 entry or part of it)": "as the sequence (Q8NFJ6 whole entry) above, with T11A, R357W, D364E, T374A counted along it", "assay": "flow cytometry, HEK293 cells expressing the target", "description": "as §1, §2"}, "mouse PROKR2": {"molecular_target": "T4, mouse PROKR2 (mouse (Mus musculus), UniProt Q8K458 1-381)", "T4 construct": "whole, on cells; Expressed on engineered HEK293 or CHO cells; also called mPROKR2; CHO/mPROKR2", "T4 sequence (Q8K458 whole entry)": "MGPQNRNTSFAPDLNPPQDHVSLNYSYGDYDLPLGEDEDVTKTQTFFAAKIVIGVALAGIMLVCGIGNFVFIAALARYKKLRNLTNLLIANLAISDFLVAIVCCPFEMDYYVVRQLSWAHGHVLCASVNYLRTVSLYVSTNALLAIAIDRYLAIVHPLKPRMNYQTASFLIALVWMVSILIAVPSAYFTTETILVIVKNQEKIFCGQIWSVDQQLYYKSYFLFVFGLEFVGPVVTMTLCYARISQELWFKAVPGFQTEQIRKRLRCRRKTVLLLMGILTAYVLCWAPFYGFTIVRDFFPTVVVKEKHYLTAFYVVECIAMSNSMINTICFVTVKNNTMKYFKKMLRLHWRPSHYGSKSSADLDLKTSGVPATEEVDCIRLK", "assay": "flow cytometry, HEK293 cells expressing the target", "description": "as §1, §2"}, "mouse PROKR1": {"molecular_target": "T5, mouse PROKR1 (mouse (Mus musculus), UniProt Q9JKL1 1-393)", "T5 construct": "whole, on cells; Expressed on engineered HEK293 or CHO cells; also called mPROKR1; 293/mPROKR1", "T5 sequence (Q9JKL1 whole entry)": "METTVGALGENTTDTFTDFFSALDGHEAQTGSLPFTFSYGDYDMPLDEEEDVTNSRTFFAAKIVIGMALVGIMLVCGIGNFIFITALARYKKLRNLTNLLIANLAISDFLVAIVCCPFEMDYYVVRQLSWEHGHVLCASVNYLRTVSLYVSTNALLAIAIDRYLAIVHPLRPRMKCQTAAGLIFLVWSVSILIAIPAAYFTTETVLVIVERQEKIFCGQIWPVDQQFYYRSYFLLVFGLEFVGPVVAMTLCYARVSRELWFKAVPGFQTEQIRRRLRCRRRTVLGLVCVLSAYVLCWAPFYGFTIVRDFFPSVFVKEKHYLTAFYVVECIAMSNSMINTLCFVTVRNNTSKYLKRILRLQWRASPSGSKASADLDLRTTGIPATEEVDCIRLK", "assay": "flow cytometry, HEK293 cells expressing the target", "description": "as §1, §2"}, "human PROKR1 (1-62)-hFc": {"molecular_target": "T6, human PROKR1 (1-62)-hFc (human)", "T6 construct": "also called soluble human PROKR1 (N-terminal portion)", "T6 sequence (chain, as listed by the source limits assumed)": "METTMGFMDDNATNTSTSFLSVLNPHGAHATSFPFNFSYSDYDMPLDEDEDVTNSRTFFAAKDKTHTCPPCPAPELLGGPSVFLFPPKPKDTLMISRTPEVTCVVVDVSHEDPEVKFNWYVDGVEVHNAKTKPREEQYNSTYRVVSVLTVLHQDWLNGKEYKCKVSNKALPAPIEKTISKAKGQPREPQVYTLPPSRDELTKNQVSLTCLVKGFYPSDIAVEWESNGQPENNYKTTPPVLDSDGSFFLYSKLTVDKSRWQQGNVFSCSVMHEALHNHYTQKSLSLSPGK", "assay": "SPR (Biacore 4000), 25 C, antibody captured, antigen injected at 25 and 100 nM", "description": "(§3) Kinetic experiments were carried out using HBS-EP (10 mM HEPES, 150 mM NaCl, 3 mM EDTA, 0.05% Surfactant P20, pH 7.4) as both the running buffer and the sample buffer. Antigen-antibody association rates were measured by injecting 2 concentrations (25 and 100 nM) of both human PROKR1 (1-62)-hFc (SEQ ID NO:179) and human PROKR2(1-53)-hFc (SEQ ID NO:180) over the captured antibody surface. Antibody-antigen association was monitored for 90 seconds while dissociation was monitored for 360 seconds. Kinetic on-rate (kₐ) and off-rate (kd) constants were determined from the data using Scrubber software version 2.0 c. Binding dissociation equilibrium constants (KD) and dissociative half-lives (t 1/2) were calculated from the kinetic rate constants as: KD=kd/kₐ and t 1/2=ln(2)/kd."}, "human PROKR2(1-53)-hFc": {"molecular_target": "T7, human PROKR2(1-53)-hFc (human)", "T7 construct": "also called soluble human PROKR2 (N-terminal portion)", "assay": "SPR (Biacore 4000), 25 C, antibody captured", "description": "as §3"}},
  "data": [
    {"binder": "H1M6386N (antibody, mouse IgG1, V domains shown, Chimeric: human variable domains, mouse constant domains) VH: NVQLVESGGGLVKPGGSLRLSCVASGFTFANAWMTWVRQAPGKGLEWVGRIKSKTDGGTTDHAAPVKGRFIVSRDDSKSTLYLQMNSLKTEDTAVYYCTNYAFQLWGQGTLVTVSS VL: DIVMTQTPLSSLVTLGQSASISCRSSQGLVHSDGNTYLSWLHQRPGQPPRLLIYKISNRFSGVPDRFTGSGAGTDFTLKISRVEAEDVGVYYCMQSTQFPRTFGQGTKVEIK", "values": [
      {"measurement": "binding result", "setting": "human PROKR2", "value": "binds"},
      {"measurement": "Block (%), calcium flux, hPROKR1 + PK1 (20 nM hPK1)", "setting": "human PROKR1", "value": 92, "unit": "%"},
      {"measurement": "IC50 (nM), inhibition of calcium flux, hPROKR1 + PK1 (20 nM hPK1)", "setting": "human PROKR1", "value": 14.9, "unit": "nM"},
      {"measurement": "IC50 (nM), inhibition of calcium flux, hPROKR1 + PK2 (20 nM hPK2)", "setting": "human PROKR1", "value": 16.2, "unit": "nM"},
      {"measurement": "binding result", "setting": "cynomolgus monkey PROKR1", "value": "no binding"},
      {"measurement": "binding result", "setting": "cynomolgus monkey PROKR2", "value": "no binding"},
      {"measurement": "binding result", "setting": "mouse PROKR2", "value": "no binding"},
      {"measurement": "binding result", "setting": "mouse PROKR1", "value": "no binding"},
      {"measurement": "Kd", "setting": "human PROKR1 (1-62)-hFc", "value": 0.00485, "unit": "µM"},
      {"measurement": "koff", "setting": "human PROKR1 (1-62)-hFc", "value": 0.00103, "unit": "s⁻¹"},
      {"measurement": "kon", "setting": "human PROKR1 (1-62)-hFc", "value": 212000, "unit": "M⁻¹ s⁻¹"},
      {"measurement": "t½", "setting": "human PROKR1 (1-62)-hFc", "value": 11, "unit": "min"},
      {"measurement": "binding result", "setting": "human PROKR2(1-53)-hFc", "value": "no binding (tested: 25 and 100 nM antigen injected)"}
    ]}
  ]
}
